Experimental data from publication PMC10125973, “A small secreted protein NICOL regulates lumicrine-mediated sperm maturation and male fertility” (Nature Communications, 2023).

Target: T1, neural epidermal growth factor-like like 2 (NELL2), C-terminally 6xHis-tagged recombinant (UniProt Q61220 25-819)
T1 construct: NELL2, secreted protein; also called purified recombinant NELL2; source: human 293-F cells, transiently expressed, purified from conditioned medium (ammonium sulphate, Ni-NTA, PD-10)
T1 sequence (looked up): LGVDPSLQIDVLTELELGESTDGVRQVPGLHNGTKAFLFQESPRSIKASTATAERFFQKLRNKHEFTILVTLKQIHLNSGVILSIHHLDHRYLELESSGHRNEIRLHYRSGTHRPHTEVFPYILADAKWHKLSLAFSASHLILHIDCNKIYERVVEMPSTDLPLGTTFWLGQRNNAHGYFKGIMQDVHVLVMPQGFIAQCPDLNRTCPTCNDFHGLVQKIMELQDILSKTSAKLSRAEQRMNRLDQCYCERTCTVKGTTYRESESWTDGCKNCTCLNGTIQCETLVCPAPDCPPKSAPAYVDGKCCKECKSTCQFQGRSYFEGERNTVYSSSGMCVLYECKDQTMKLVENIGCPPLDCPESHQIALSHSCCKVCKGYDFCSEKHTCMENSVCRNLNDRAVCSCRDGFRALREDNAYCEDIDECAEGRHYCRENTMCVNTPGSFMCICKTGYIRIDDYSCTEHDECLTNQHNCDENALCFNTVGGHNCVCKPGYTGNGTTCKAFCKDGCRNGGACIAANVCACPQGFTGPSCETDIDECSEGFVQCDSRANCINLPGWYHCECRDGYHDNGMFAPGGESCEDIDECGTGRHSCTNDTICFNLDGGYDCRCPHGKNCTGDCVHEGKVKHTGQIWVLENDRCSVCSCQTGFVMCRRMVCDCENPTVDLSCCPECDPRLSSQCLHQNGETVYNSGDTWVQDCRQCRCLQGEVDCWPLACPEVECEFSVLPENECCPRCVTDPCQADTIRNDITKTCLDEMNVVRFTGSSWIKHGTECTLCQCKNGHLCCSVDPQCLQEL
Assay: SPR; purified NELL2 immobilised on series S sensor chip CM5; purified NICOL in PBS as analyte; Biacore T200
Conditions: both partners purified

- Kd: 87 nM
- koff: 0.0062 s⁻¹
- kon: 72000 M⁻¹ s⁻¹
B1: NELL2-interacting cofactor for lumicrine signalling (NICOL), 6xHis-tagged recombinant (natural protein, mouse, UniProt Q3UR78 29-90, looked up)
chain: EPATGSAVPAQSRPCVDCHAFEFMQRALQDLRKTAYSLDARTETLLLQAERRALCACWPAGR
notes: mouse NICOL (predicted gene Gm1673, ortholog of human C4orf48), small secreted protein; cDNA encoding mouse NICOL followed by 6xHis; purified from conditioned medium, so without its signal peptide; also called purified recombinant NICOL protein; source: human 293-F cells, transiently expressed, purified from conditioned medium (ammonium sulphate, Ni-NTA, PD-10)
